Results published in patent publication US20150111822A1.

Molecular target: Fzd7/Sdc4 co-receptor complex (mouse) (UniProt Q61090)
Experiment: cell-based or functional assay

Fzd7/Sdc4 co-receptor complex (mouse), sequence (O35988 24-198, chain 2 of 2, other chains not shown): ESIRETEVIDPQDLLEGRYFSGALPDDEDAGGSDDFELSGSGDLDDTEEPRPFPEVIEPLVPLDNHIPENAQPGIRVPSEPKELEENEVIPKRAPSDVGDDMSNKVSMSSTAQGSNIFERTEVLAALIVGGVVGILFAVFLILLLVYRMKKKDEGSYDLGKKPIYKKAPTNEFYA

increase in numbers of Pax7+/YFP+ cells, FN&Wnt7a condition, 72 h [%] | increase in numbers of satellite stem cells, FN&Wnt7a relative to COL&Wnt7a, 72 h [%] | increase in the proportion of symmetric Pax7+/YFP- cell divisions, FN&Wnt7a, 42 h [%] | increase in the proportion of symmetric cell divisions, COL&Wnt7a against COL alone, 42 h [%] | Substance
38 | 156 | 163 | – | human plasma fibronectin (BD biosciences) (from UniProt P02751 32-2296) (ligand)
– | – | – | 108 | recombinant Wnt7a (R&D Systems) (ligand)
